Assay results as given in the supplement of paper PMC12042874.
± gives the uncertainty stated by the source.

Assay: amyloid nucleation score (Sup35N fusion, yeast selection) (log enrichment); library NNK1; higher = more nucleation; inactive = no reads after selection
In short: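 In psi-negative yeast, Sup35N fusions carrying peptides of 20 random codons were induced with 100 μM copper sulfate for 24 hours. The cells then grew 7 days at 30°C on medium lacking adenine and uracil, and plasmid inserts from input and output were Illumina-sequenced, excluding sequences with under 100 input reads. Nucleation score is the DiMSum log enrichment of output over input reads, centred on the mode score of non-aggregating sequences.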

Row | Substance | amyloid nucleation score
1 | VTFVIYNRDNSAEYGVVFC | -0.46 ± 0.71
2 | VTILWTKSYMESDISFYIMW | -1.03 ± 0.44
3 | VTIYFILRNGGRVSESLNPW | 7.19 ± 0.084
4 | VTRVLLVKWPYNTVETCGGA | -0.317 ± 0.33
5 | VTRVRFGSVWGSQVHRNFVM | 0.212 ± 0.4
6 | VTYNGYVG | -0.205 ± 0.58
7 | VTYTISRELSFCPPITFGTL | 0.777 ± 0.73
8 | VVASAFSSL | 0.388 ± 0.93
9 | VVCGIPVFNLRYL | -0.495 ± 0.42
10 | VVCQSDILDLSMWTMMGVSM | -0.823 ± 0.66
11 | VVCRCTYFRLITGDSSL | -0.136 ± 0.8
12 | VVCRVNTSVMGFKSNCRLGV | 0.624 ± 0.6
13 | VVDVSYRNLRRCM | 0.8 ± 0.36
14 | VVELASLEGGHELTNWVNLV | 0.231 ± 0.59
15 | VVGYRRTMGLVEFSLASVSN | -0.806 ± 0.76
16 | VVKSEVNTVA | 1.27 ± 0.62
17 | VVLAMTVRLWC | -0.667 ± 1.3
18 | VVLCSVLTFDPSAEHLCTLV | 6.44 ± 0.066
19 | VVLMLRDVEEFRQ | -0.38 ± 0.21
20 | VVLNCYIYVIPA | 3.39 ± 0.13
21 | VVMLNFYCIRNRRVWIVNIC | 3.76 ± 0.058
22 | VVNGTMFINPCYVQGRCKEM | 4.63 ± 0.067
23 | VVSFLLHPCDFRSWFCGCIW | -0.226 ± 0.93
24 | VVSNTGSFSPVRMR | -0.117 ± 0.42
25 | VVSWDS | -0.015 ± 0.41

Row | Substance | amyloid nucleation score
26 | VVTQCLLAAAVHLYCNCHHM | 6.972 ± 0.045
27 | VVTSLIL | -0.999 ± 1.2
28 | VVTWVYASSVVLSSLPREGA | -0.115 ± 0.26
29 | VVWILMSAQNRMAPRFDVLT | 1.06 ± 0.51
30 | VVYDGIMSWIYYCRFVVDAV | inactive
31 | VWDSFSHVLVRLGIYLFFYV | 0.763 ± 0.42
32 | VWFCLCLYM | 1.95 ± 0.091
33 | VWLRIM | -0.957 ± 2.4
34 | VWMVMSYPDHTLVLLLTG | -1.33 ± 0.57
35 | VWRSFKSMHSHRSNSNALWL | 1.96 ± 0.6
36 | VWRTEQ | -0.533 ± 0.66
37 | VWRTYVGPVCSMLAG | 0.641 ± 0.32
38 | VYASSCMLGTWLSDSTSGCS | 0.371 ± 0.69
39 | VYATSSIKIAVPVLHQAVLP | 3.14 ± 0.096
40 | VYESGRCNLACRMFARDGCS | -1.38 ± 2.4
41 | VYGFDRFKVRRMGESLWWS | inactive
42 | VYIHTWIRVKIWSSS | 1.96 ± 0.65
43 | VYIYRSVPNTAPAPMIEKKD | -0.048 ± 1.2
44 | VYKFIFAYYYSEDVPFNRPL | inactive
45 | VYLYMPPIDLL | -0.021 ± 0.46
46 | VYMMGGTLLRPYAILSYLDP | 0.465 ± 0.3
47 | VYNAPGCVNRSDLVV | -0.745 ± 2.4
48 | VYPWPVERSNFPTSALSYTK | -0.843 ± 0.6
49 | VYQKWLG | -0.778 ± 0.46
50 | VYRIAMIF | 1.22 ± 0.31

Row | Substance | amyloid nucleation score
51 | VYRLRLVFKVSYFIIECHKG | -0.851 ± 0.4
52 | VYRNASLCVSEVL | 0.211 ± 0.97
53 | VYRVAKASM | -0.35 ± 1.9
54 | VYWMFV | 0.369 ± 0.3
55 | VYYLGVKAFLFNSSF | 0.824 ± 0.54
56 | WAFIHSCRYKLTCGGYFYAR | -0.236 ± 1.2
57 | WAICDSLLVLVSRKGSASSP | -1.56 ± 1.4
58 | WAILLSWGYKGSRAWWFFSI | -0.721 ± 0.49
59 | WAMREEVYSNSFSFMFALYW | 0.651 ± 0.36
60 | WASELVRHHNDKINCSLRCG | -0.253 ± 0.84
61 | WASTLEDVMRQEKVHLWMIG | -0.242 ± 0.3
62 | WCKILYAKQERWP | 0.677 ± 0.44
63 | WCLESINFRRMCMASSG | 0.893 ± 0.41
64 | WCNNYLSRLCRRVINLEAGL | -1.13 ± 1.9
65 | WCRDLHKLYLY | -0.2 ± 0.56
66 | WCSTQLVRKIKVFEKSERGV | -1.07 ± 2.1
67 | WCVFAFMKSQQCK | -0.112 ± 0.22
68 | WCVLTSMEAYWFGLSRN | 0.869 ± 0.54
69 | WCVYNFSCALISPY | 6.018 ± 0.054
70 | WCWLCVKRR | -0.108 ± 0.56
71 | WDATLNKITYKRSLVGSVSK | 0.275 ± 0.58
72 | WDDSINCTTK | inactive
73 | WDFFYLMSMLPRDEVGFL | 0.756 ± 0.46
74 | WDHQNMNLYYIKYGMVMNQS | 3.17 ± 0.067
75 | WDSLDIHQFNKDMWQTSG | -0.909 ± 0.9

Row | Substance | amyloid nucleation score
76 | WDTPFFCPSRNFRRATGPYP | 0.983 ± 0.53
77 | WEVSPIGVPYSY | -0.117 ± 0.57
78 | WFAFIWNNRKCNFRKGTRDV | 6.11 ± 0.075
79 | WFFRLLAMSRRTEVAGTSPL | 0.941 ± 0.65
80 | WFIAL | -0.068 ± 0.61
81 | WFMPTSRSKVVYLPSYRCNE | 0.432 ± 0.2
82 | WFSTDGWKNMSDSLASWSCY | 0.863 ± 0.42
83 | WFSVDFNNHLWFQNSYSMWG | 0.156 ± 0.43
84 | WFTAHMCDNHYSTIPNSPRQ | 1 ± 0.81
85 | WFTDLRNRGVVNTYTPIV | -0.131 ± 0.29
86 | WFVNIEGREEWKYHKGCEPK | 0.758 ± 0.49
87 | WGFESFSAWATMCERSRWHR | 0.428 ± 0.55
88 | WGICDLKVCVQPCPSSNARI | -0.059 ± 0.57
89 | WGKLTKQERGWDNDKVNQEC | 0.094 ± 0.4
90 | WGMCFAVPNISTGLNNYTMP | -0.234 ± 0.64
91 | WGNLCRNYD | 0.004 ± 0.28
92 | WHALVNRGHAWSRIGQDAGC | -0.003 ± 0.79
93 | WHGVFKTRNRLCGTLPWFCA | -0.143 ± 0.51
94 | WHQEWRKWADKGLAIRT | 0.836 ± 0.97
95 | WHRDVGFTLISVTPFCMMGG | 1.54 ± 0.33
96 | WITYHEFWRLTKGCLSFTDL | 0.023 ± 0.55
97 | WKIRKKA | 0.155 ± 0.7
98 | WLETRP | -0.226 ± 0.33
99 | WLHIPYS | 0.547 ± 0.61
100 | WLISLFRDDDRFNKVSKRAA | -0.3 ± 0.38

Row | Substance | amyloid nucleation score
101 | WLMAKGRYLSAFTVSFIRSY | -1.28 ± 1.8
102 | WLPMPSV | 0.411 ± 0.47
103 | WLRMYLGINFSVRYCGRRVE | 0.465 ± 0.48
104 | WLSRSSFMKLCSTKFPRWRL | -0.494 ± 1.1
105 | WLTNWFEPRWSLVMQSVRCP | -0.121 ± 0.44
106 | WLTVITADSMAEGRQACRLP | 0.132 ± 0.46
107 | WLVAHAPGH | 0.471 ± 0.62
108 | WLWIRFIAVTSSSVEIRANS | -0.834 ± 0.54
109 | WMNGGQRSVWMCCMGRMHPW | 7.738 ± 0.054
110 | WNIRRIRSDTRTLFKCNL | 0.636 ± 0.32
111 | WNNGVLLNRV | 0.792 ± 0.41
112 | WNYTGSFFMQYSMGISRRDG | 1.59 ± 0.2
113 | WQSCWIWTKCRTVDVRRKKD | -0.598 ± 0.43
114 | WRCRGCMWAHRAWGNSSCV | -0.655 ± 0.98
115 | WRICLQCRAYPLRTTGGQRQ | 0.444 ± 0.69
116 | WRIEACFSNFARTIFLVSGW | -0.399 ± 0.3
117 | WRMFGGRSEQSFIVPCRLLG | 0.535 ± 1.2
118 | WRWYEGGLTLSWSHASSA | -0.536 ± 0.98
119 | WSATSATMLQSLPVQEEHVD | -0.38 ± 0.83
120 | WSCCAEERVTWGPAEMLLWG | -1.05 ± 2.7
121 | WSDYVDNPSVSARRSRQFRL | -1.21 ± 1.6
122 | WSFTK | -0.284 ± 0.68
123 | WSKCNVRMCWH | -0.122 ± 0.64
124 | WSLLCDCASGQCVMR | 0.005 ± 0.44
125 | WSLPAVRRCHNELEYCNTRR | 0.107 ± 0.34

Row | Substance | amyloid nucleation score
126 | WSRMGLAILRFFKYLS | 0.093 ± 0.36
127 | WSTHRQESFALYSKCMEVRR | 0.186 ± 0.28
128 | WTLRYRSARLVACMINTDEM | 1.68 ± 0.46
129 | WTSIV | 1.38 ± 0.47
130 | WTVSSVIGNGWQCNRSYG | 0.247 ± 0.27
131 | WVAWTYMENLSCLYFETATM | -0.593 ± 0.57
132 | WVGQVLGREENCASASSFSE | -1.89 ± 2.7
133 | WVHMFMHDYNMRYTFSVYMC | inactive
134 | WVLTVVFVDKWREAYMYATF | inactive
135 | WVQGRRTFLVGWRGSQRGPI | -0.995 ± 0.81
136 | WVTSSAFEE | 0.277 ± 0.7
137 | WWGWKIDTNAQILARLCKCL | -0.005 ± 1.2
138 | WWLFHVFLLKRQSITNAGVR | inactive
139 | WWYYNRRWLVTCKSVYGLGM | -0.34 ± 0.37
140 | WYGDSPECEV | 0.141 ± 0.73
141 | WYQLVVVEQGSTLYS | 0.341 ± 0.68
142 | WYRTRIQRRIFFNRAIYSTA | 0.368 ± 0.85
143 | YALGVAFSQNSYDT | 0.669 ± 0.63
144 | YCAKNCEGFGRVYISG | -2.42 ± 2.7
145 | YCFSSSYVWHNRDGSINMFK | inactive
146 | YCIYVGFDLMCLSVWNGHRS | -1.39 ± 0.66
147 | YCLDGAFALVVNSLWLITAA | inactive
148 | YCTCRLVKFEVDW | inactive
149 | YCVTSMVRRLVKMLYDCRGV | inactive
150 | YDHCEGCWMSNRMWELGWKG | 0.048 ± 0.33

Row | Substance | amyloid nucleation score
151 | YDIGFVI | -0.067 ± 0.28
152 | YDKFFGVSIDDR | 0.038 ± 0.59
153 | YDLRNICTSTLMSHVNRFYV | -1.22 ± 0.83
154 | YDQGVPTDVLILIAIEHQLS | 5.53 ± 0.077
155 | YDTNDGFMTGVQ | -1.56 ± 1.3
156 | YELTRIR | 2.38 ± 0.17
157 | YFDRNFARYFCYRVTTT | 1.48 ± 0.2
158 | YFFDIGVDSCMRFDIRVVET | 1.77 ± 0.6
159 | YFFFYYYVVTIRKLLHVMGT | -0.854 ± 0.63
160 | YFGYRCDYRCNPPLAPLCAN | 0.515 ± 0.43
161 | YFKAMEVTFSFWH | 0.491 ± 0.23
162 | YFKEFWIWLW | inactive
163 | YFRVLGN | -0.011 ± 0.3
164 | YFSDKVSSAFT | 0.318 ± 0.37
165 | YFSTRKYTSKGYCVRTLFAY | -0.406 ± 0.27
166 | YFTNPRCRLDAHGGFANQWW | -0.977 ± 1.4
167 | YFVFFLRDLFWRRKI | 0.408 ± 0.41
168 | YFVLKCSC | 2.05 ± 0.49
169 | YFWASHISSVYLNLETCDTM | -0.417 ± 0.42
170 | YFYDTWGA | -0.235 ± 0.47
171 | YFYFLVNISFISIKGCLFMP | 0.121 ± 0.4
172 | YFYTSHFSLLTSTQFIYRLG | 0.392 ± 0.33
